Residue numbers refer to the chain shown, from its start. Names may count otherwise. Like-named read-outs stand apart in the source and are kept apart here. Ends that are not written are not given here. * marks the point of attachment. FITC = O=C1OC2(c3ccc(O)cc3Oc3cc(O)ccc32)c2ccc(NC(=S)*)cc21

The term stoichiometry N denotes a count of units in the complex or per binding partner. What is called Kd is the equilibrium constant for the complex coming apart. A low value points to higher affinity.

First the molecules themselves.
T1: Aim21^1-600-GST (S. cerevisiae, UniProt P40563 1-600)
T1 sequence (looked up): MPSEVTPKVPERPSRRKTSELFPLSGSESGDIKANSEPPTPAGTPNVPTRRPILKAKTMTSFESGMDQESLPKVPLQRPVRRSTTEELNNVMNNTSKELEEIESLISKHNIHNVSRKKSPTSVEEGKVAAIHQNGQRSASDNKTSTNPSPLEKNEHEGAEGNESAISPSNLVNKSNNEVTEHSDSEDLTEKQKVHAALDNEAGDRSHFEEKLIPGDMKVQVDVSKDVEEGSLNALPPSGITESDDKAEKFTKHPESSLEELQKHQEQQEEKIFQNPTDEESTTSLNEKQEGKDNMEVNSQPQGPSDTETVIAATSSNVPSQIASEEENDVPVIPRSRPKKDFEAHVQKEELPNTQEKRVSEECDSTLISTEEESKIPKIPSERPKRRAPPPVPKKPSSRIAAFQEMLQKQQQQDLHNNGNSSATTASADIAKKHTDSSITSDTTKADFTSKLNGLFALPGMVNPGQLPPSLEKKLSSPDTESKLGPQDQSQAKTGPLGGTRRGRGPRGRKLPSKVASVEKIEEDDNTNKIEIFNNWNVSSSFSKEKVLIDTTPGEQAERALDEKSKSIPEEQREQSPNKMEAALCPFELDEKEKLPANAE

T2: GST-Aim21^504,507,509E (S. cerevisiae, UniProt P40563 1-679, Aim21^504,507,509E | Aim21^504,507,509E | Aim21^504,507,509E)
T2 sequence (looked up): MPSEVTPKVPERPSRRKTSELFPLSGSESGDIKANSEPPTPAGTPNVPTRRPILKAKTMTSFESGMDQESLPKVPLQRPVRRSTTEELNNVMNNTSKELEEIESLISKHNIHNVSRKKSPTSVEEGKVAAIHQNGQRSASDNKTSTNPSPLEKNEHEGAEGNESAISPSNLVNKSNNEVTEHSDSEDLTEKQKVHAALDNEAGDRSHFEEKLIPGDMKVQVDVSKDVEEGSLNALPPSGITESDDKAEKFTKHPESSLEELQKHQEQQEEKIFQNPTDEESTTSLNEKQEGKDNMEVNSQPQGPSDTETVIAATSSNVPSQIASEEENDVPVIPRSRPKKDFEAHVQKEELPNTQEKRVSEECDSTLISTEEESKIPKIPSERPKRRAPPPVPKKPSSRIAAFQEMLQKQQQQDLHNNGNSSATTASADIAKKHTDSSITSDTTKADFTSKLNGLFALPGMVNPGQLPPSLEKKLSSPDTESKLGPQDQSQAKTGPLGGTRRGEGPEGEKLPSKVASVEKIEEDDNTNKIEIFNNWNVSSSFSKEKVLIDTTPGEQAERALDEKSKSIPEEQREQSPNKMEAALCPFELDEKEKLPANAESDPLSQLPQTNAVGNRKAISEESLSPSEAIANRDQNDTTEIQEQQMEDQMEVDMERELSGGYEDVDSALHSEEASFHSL

T3: His-tagged Aim21 (His-Aim21) (S. cerevisiae, UniProt P40563 1-679)
T3 sequence (looked up): T2 sequence (looked up) with E504R, E507R, E509R

B1: 6-histidine-tagged actin capping protein (His-Cap1/2 heterodimer) (complex, S. cerevisiae)
chain 1: MSSSKFEEVINKIINDSPPGELREVYDDLIKITSENSKNTILDAIENYNVQNCIPIEVNGNSVIISKYNKEGAKFFDPVNSVIFSVNHLERKGLDIEPYEFTHAKIEKGQLKELHDKLHEYLLQSFPGDVSFAVYPVPEEISKISIIIVSTKYNPNNFWNGHWRSSYIYDLETRELSGQISTQVHYYEDGNVSFQSGKDINQSNVDDVVCTIRDIETNFENDLDLSFFDLNEKQFKALRRRLPVTRSKINWGSAIGSYRLGKNAAEGK
chain 2: MSDAQFDAALDLLRRLNPTTLQENLNNLIELQPNLAQDLLSSVDVPLSTQKDSADSNREYLCCDYNRDIDSFRSPWSNTYYPELSPKDLQDSPFPSAPLRKLEILANDSFDVYRDLYYEGGISSVYLWDLNEEDFNGHDFAGVVLFKKNQSDHSNWDSIHVFEVTTSPSSPDSFNYRVTTTIILHLDKTKTDQNSHMMLSGNLTRQTEKDIAIDMSRPLDVIFTSHVANLGSLIEDIESQMRNLLETVYFEKTRDIFHQTKNAAIASSAEEANKDAQAEVIRGLQSL
B2: 6-histidine-tagged Tda2 (His-Tda2) (natural protein, S. cerevisiae)
chain: SMQIEIKDGRSDNSPLPERKLVTLIQESYDSLKDDNEINLSTESTSNLLIKLVLEKLEKHSSLYKYIASVTTLNIEGLNEENANFSLKNDIGASWESKKDGIFNYKLEDKNNNECYLITILWLHK
B3: FITC-Aim21^CPI+TBR with 25 µM His-Tda2 (reconstituted Tda2-Aim21 peptide complex) (complex, S. cerevisiae)
peptide: KTGPLGGTRRGRGPRGRKLPSKVASVEKIEEDDNTNKIEIFNNWNVS
chain: B2 chain
modifications: FITC label (printed FITC-KTGPLGG...)
B4: Aim21^1-535-GST (domain or fragment, S. cerevisiae, UniProt P40563 1-535, looked up)
chain: MPSEVTPKVPERPSRRKTSELFPLSGSESGDIKANSEPPTPAGTPNVPTRRPILKAKTMTSFESGMDQESLPKVPLQRPVRRSTTEELNNVMNNTSKELEEIESLISKHNIHNVSRKKSPTSVEEGKVAAIHQNGQRSASDNKTSTNPSPLEKNEHEGAEGNESAISPSNLVNKSNNEVTEHSDSEDLTEKQKVHAALDNEAGDRSHFEEKLIPGDMKVQVDVSKDVEEGSLNALPPSGITESDDKAEKFTKHPESSLEELQKHQEQQEEKIFQNPTDEESTTSLNEKQEGKDNMEVNSQPQGPSDTETVIAATSSNVPSQIASEEENDVPVIPRSRPKKDFEAHVQKEELPNTQEKRVSEECDSTLISTEEESKIPKIPSERPKRRAPPPVPKKPSSRIAAFQEMLQKQQQQDLHNNGNSSATTASADIAKKHTDSSITSDTTKADFTSKLNGLFALPGMVNPGQLPPSLEKKLSSPDTESKLGPQDQSQAKTGPLGGTRRGRGPRGRKLPSKVASVEKIEEDDNTNKIEIFNN

The target in data set [1] is T1, Aim21^1-600-GST. Put plainly: pull-down.
Data set [2] deals with T2, GST-Aim21^504,507,509E. In words: pull-down.
Data set [3] has as its target T3, His-tagged Aim21 (His-Aim21). Put plainly: SEC + other: sucrose density gradient fractionation.
Data set [4] deals with the molecule itself. The description is as above.
The target of data set [5] is B1. In words: fluorescence polarisation. (In fluorescence polarisation assays a small probe gives low polarisation when free and higher when bound to something large.)
Data set [6] has as its target B2. Put plainly: fluorescence polarisation.
The target of data set [7] is B1. Put plainly: fluorescence polarisation. This is another data set of the same source.
Data set [8] concerns the target B2. In words: pull-down.
The target of data set [9] is B1. Put plainly: pull-down.

As to B1, the binding result in [1] is reported as “binds”.

B2: the binding result in data set [2] was “binds”. Besides, the figures for the “stoichiometry N” value in data set [3] and in [4] were 2 Aim21 molecules per Tda2 homodimer and 2, respectively.

Turning to B3, in data set [5], binding was put at a Kd of 250 nM.

Consider {FITC}-KTGPLGGTRRGRGPRGRKLPSKVASVEKIEEDDNTNKIEIFNNWNVS [FITC-labeled Aim21 peptide spanning AA 493–539, with the CPI motif and the TBR (FITC-Aim21^CPI+TBR)], for which the binding result in data set [6] is recorded as “binds”. This molecule also showed a Kd in [7] of 3100 nM.

For KLPSKVASVEKIEEDDNTNKIEIANNWNVSSSFSKEKVLIDTTPGE (domain or fragment, S. cerevisiae, UniProt P40563 510-555, looked up) [GST-Aim21^510-555 F533A], the binding result in [8] is on record as “binds”.

Regarding B4, the binding result in [9] is “binds”.

The values above are taken from paper PMC8351736 (Molecular Biology of the Cell, 2021).
